Laboratory results: US20230383295A1

Target: integrin receptors
Experiment: cell-based or functional assay

HRP-filled vesicles in endothelial cells of Vtn^RGE mice compared to wildtype animals: 2 fold
Substance: vitronectin with RGD domain mutated to RGE (knock-in mouse line Vtn^RGE/RGE) (from UniProt P29788 20-478) (ligand)
